# Experimental data published in paper PMC3886910 (PLoS Neglected Tropical Diseases, 2014).
# Like-named read-outs stand apart in the source and are kept apart here.
# Legend:
# SjCP3842 = molecular target: T1, SjCP3842 (Schistosoma japonicum, UniProt Q6PYV4); assay: UV-visible differential spectral titration (Soret […] nm); also hemin-agarose pulldown and heme peroxidase binding assay
# T1 construct: gene CP3842
# [1] = molecular target: native SjCP1084 (Schistosoma japonicum (endogenous in egg and adult worm extracts)); assay: SDS-PAGE and immunoblot (oligomer bands)
# [2] = molecular target: native SjCP3842 (Schistosoma japonicum (endogenous in egg and adult worm extracts)); assay: SDS-PAGE and immunoblot (oligomer bands)
# [3] = molecular target: native SjCP3842 (Schistosoma japonicum (endogenous in egg and adult worm extracts)); assay: SDS-PAGE and immunoblot (oligomer bands); remark: listed apart in the source
# [4] = molecular target: SjCP1084, recombinant (Schistosoma japonicum); assay: SDS-PAGE and western blot (oligomer bands)
# [5] = molecular target: SjCP3842, recombinant (Schistosoma japonicum); assay: SEC
# [6] = molecular target: SjCP3842, recombinant (Schistosoma japonicum); assay: SDS-PAGE and western blot (oligomer bands)
# [7] = molecular target: SjCP1531, recombinant (Schistosoma japonicum); assay: SDS-PAGE and western blot (oligomer bands)
# [8] = molecular target: native SjCP1531 (Schistosoma japonicum (endogenous in egg and adult worm extracts)); assay: SDS-PAGE and immunoblot (oligomer bands)
compound,measurement,setting,value
C=CC1=C(C)C2=Cc3c(C=C)c(C)c4[n]3[Fe][n]3c(c(C)c(CCC(=O)O)c3=CC3=NC(=C4)C(C)=C3CCC(=O)O)=CC1=N2 [heme],Kd,SjCP3842,1.61 µM
native SjCP1084 (natural protein),stoichiometry N,[1],4
native SjCP3842 (natural protein),stoichiometry N,[2],2
same,stoichiometry N,[3],4
"SjCP1084, recombinant (natural protein)",stoichiometry N,[4],4
"SjCP3842, recombinant (natural protein)",stoichiometry N,[5],4
same,stoichiometry N,[6],4
"SjCP1531, recombinant (natural protein)",stoichiometry N,[7],4
native SjCP1531 (natural protein),stoichiometry N,[8],4
